According to publication doi:10.1101/2020.02.24.961524:

Molecular target: N-terminally SNAP-tagged GLP-1R (glucagon-like peptide-1 receptor) (UniProt P43220)
Assay: FRET or BRET

Sequence of UniProt P43220 (P43220 24-463): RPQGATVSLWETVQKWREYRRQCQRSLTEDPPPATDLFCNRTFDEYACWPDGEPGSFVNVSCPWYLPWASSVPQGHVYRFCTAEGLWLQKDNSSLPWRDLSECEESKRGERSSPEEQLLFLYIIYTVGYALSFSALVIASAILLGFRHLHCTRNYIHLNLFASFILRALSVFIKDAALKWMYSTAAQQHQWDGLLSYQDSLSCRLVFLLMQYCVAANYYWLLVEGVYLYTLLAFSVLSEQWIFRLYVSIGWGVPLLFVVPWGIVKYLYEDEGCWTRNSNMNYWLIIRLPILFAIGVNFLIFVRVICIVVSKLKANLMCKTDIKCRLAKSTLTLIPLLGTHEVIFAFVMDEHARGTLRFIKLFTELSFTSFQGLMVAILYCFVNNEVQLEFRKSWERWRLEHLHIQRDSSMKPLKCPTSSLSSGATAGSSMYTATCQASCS

Substance: exendin-4 (from UniProt P26349 48-87) (peptide)
- fold affinity relative to GLP-1: 5 fold
